Patent publication US8252737B2, “Antimicrobial peptides and methods of use” (priority 2004, dated 2012)

How the values were obtained:
[1] = 50% TFE, 5° C., previous study (29); cited from earlier work
[2] = RP-HPLC temperature profiling (hydrophobicity and self-association/dimerization parameter PA); assay type: physicochemical
Protocol: The retention time data for the peptides is shown in Table 5 which records retention times at 5° C., the maximal retention times and retention times at 80° C. during the temperature profiling. Temperatures of 5° C. and 80° C. were the lower and upper temperature limits of temperature profiling in RP-HPLC, representing dimerization of the peptides at 5° C. and the monomerization of peptides at 80° C. due to dissociation of the dimers. The maximal retention times represent the threshold points at which peptides transform from dimeric to monomeric form. Among the non-polar face substituted peptides, peptides with more hydrophobic substitutions (whether L- or D-amino acid substitutions) were more retained during RP-HPLC, i.e., peptides were eluted in the order of Lys, Gly, Ser, Ala, Val and Leu (Table 5). In addition, on the non-polar face, the L-analogs were always more retained than the D-diastereomers (Table 5, FIG. 5). […] In contrast, on the polar face, the elution order of peptides was not correlated with the order of amino acid side-chain hydrophobicity, e.g., PAL and PSL were more retained than PVL (Table 5); PSD was the most retained peptide among the D-amino acid substituted analogs on the polar face (Table 5).
The ability of the D-peptides to self-associate was determined by RP-HPLC temperature profiling. […] As expected, L- and D-peptide enantiomers were totally inseparable over this temperature range, since each pair of peptides is identical in sequence and must adopt identical conformations on interacting with the reversed-phase matrix, whether in an all-L- or all-D-conformation. RP-HPLC retention behavior has been frequently utilized to represent overall peptide hydrophobicity (53, 26). In the present study, the hydrophobicity of the three peptide pairs is in the order V681/D-V681>[…]>NKL/D-NKD (Table 4), which agrees with the change in hydrophobicity of the substitutions at position 13 in order of the most hydrophobic to the least hydrophobic amino acid residue (Val in V681>Ala in NA>Lys in NK) (54). […] For example, the retention times of peptides V681/D-V681 increase with increasing temperature (up to ˜30° C.) followed by a retention time decrease with a further temperature increase. […] Since peptide C is a monomeric random coil peptide in both aqueous and hydrophobic media, its retention behavior over the temperature range 5° C. to 80° C. represents only general temperature effects on peptide retention behavior, i.e., a linear decrease in peptide retention time with increasing temperature due to greater solute diffusivity and enhanced mass transfer between the stationary and mobile phases at higher temperatures (55). Thus, after normalization to the retention times of peptide C, the retention behavior of the peptides represents only peptide self-association ability. Note that the higher the PA value, the greater the self-association ability. […] From Table 4, it is also clear that the peptide retention times at 80° C. are dramatically lower than those at 5° C.
Elution times during RP-HPLC have frequently been utilized as a measure of relative hydrophobicity of peptide analogs (26, 31). In the current study, peptide analogs differed only by a single amino acid substitution on either the non-polar face or the polar face of V681; thus, the retention time data in Table 5 can be considered to reflect the hydrophobicity difference between peptide analogs. In order to more easily visualize the variation in hydrophobicity of the peptide analogs, the retention time data in Table 5 were normalized relative to that of the native peptide V681 at 5° C. and 80° C., respectively. Hydrophobicity relative to the native peptide V681 indicates an increase or decrease of the apparent peptide hydrophobicity with the different amino acid substitutions on the polar or non-polar face. […]

In the case of “Ac-ELEKGGLEGEKGGKELEK-amide (Ac-ELEKGGLEGEKGGKELEK-NH2) [peptide C, reference compound]”, the “[θ]222” value [1] is listed as −3,950, the “tR (min) 5° C.” value ([2]; RP-HPLC retention time at 5° C. during temperature profiling (measure of hydrophobicity)) is listed as 22.74 min and the “tR (min) 80° C.” value ([2]; RP-HPLC retention time at 80° C. during temperature profiling) is listed as 18.64 min.
